Key:
[1] = target: β-barrel assembly machinery (BAM), five components BamA-E, inserted in nanodiscs (E. coli, UniProt P0A940 21-810; P77774 20-392; P0A903 25-344; P0AC02 20-245; P0A937 20-113); assay: cryo-EM structure; MBP-EspP (3.6 μM, from urea) folded in vitro overnight into BAM nanodiscs (1.8 μM) with SurA (25.2 μM) in 1x TBS with 1 M urea, then SEC (Superdex 200 Increase); 7.0 Å map; conditions: both partners purified
[2] = target: BamA (subunit of E. coli BAM) (E. coli, UniProt P0A940 21-810); assay: as above; conditions: both partners purified

B1: MBP-EspP (residues 748–1300 of EspP) with an N-terminal 6xHis tag (domain or fragment)
chain: SGMFSTSDISISGNLSMTGNPDKDNKFEPSIYLNDASYLLTDDSARLVAKNKASVVGDIHSTKSASIMFGHDESDLSQLSDRTSKGLALGLLGGFDVSYRGSVNAPSASATMNNTWWQLTGDSALKTLKSTNSMVYFTDSANNKKFHTLTVDELATSNSAYAMRTNLSESDKLEVKKHLSGENNILLVDFLQKPTPEKQLNIELVSAPKDTNENVFKASKQTIGFSDVTPVITTRETDDKITWSLTGYNTVANKEATRNAAALFSVDYKAFLNEVNNLNKRMGDLRDINGEAGAWARIMSGTGSASGGFSDNYTHVQVGVDKKHELDGLDLFTGFTVTHTDSSASADVFSGKTKSVGAGLYASAMFDSGAYIDLIGKYVHHDNEYTATFAGLGTRDYSTHSWYAGAEAGYRYHVTEDAWIEPQAELVYGSVSGKQFAWKDQGMHLSMKDKDYNPLIGRTGVDVGKSFSGKDWKVTARAGLGYQFDLLANGETVLRDASGEKRIKGEKDSRMLMSVGLNAEIRDNVRFGLEFEKSAFGKYNVDNAVNANFRYSF
notes: also called MBP-EspP substrate
B1: binds [1]; binds [2].
